Test results: patent US20210206856A1 (PANDION OPERATIONS, published 2021)

T1: recombinant mouse MAdCAM-1 (mouse, UniProt Q61826 22-365, limits assumed)
T1 construct: also called mMAdCAM-1; mouse MAdCAM-Fc
T1 sequence (looked up): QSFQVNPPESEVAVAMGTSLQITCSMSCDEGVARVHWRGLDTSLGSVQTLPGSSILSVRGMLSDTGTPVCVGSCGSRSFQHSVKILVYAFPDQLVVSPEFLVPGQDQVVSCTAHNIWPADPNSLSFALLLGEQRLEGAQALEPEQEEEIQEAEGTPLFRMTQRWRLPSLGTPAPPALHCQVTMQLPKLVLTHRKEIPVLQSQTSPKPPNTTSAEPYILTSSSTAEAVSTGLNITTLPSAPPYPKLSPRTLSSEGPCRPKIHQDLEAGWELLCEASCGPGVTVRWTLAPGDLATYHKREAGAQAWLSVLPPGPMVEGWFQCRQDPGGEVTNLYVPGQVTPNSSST

T2: human MAdCAM expressed on cells (human, UniProt Q13477 19-382)
T2 construct: whole, on cells; also called MADCAM1
T2 sequence (looked up): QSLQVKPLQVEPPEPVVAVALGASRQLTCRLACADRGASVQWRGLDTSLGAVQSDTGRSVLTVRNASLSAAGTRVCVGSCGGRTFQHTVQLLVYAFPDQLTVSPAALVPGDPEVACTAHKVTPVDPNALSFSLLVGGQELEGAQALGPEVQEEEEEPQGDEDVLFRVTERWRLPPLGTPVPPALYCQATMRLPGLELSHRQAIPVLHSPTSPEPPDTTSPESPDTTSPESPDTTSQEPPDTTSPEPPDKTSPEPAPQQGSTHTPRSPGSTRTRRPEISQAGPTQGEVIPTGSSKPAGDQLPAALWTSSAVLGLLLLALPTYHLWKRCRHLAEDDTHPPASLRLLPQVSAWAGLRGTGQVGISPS

T3: mouse MAdCAM expressed on cells (mouse, UniProt Q61826 22-405)
T3 construct: whole, on cells
T3 sequence (looked up): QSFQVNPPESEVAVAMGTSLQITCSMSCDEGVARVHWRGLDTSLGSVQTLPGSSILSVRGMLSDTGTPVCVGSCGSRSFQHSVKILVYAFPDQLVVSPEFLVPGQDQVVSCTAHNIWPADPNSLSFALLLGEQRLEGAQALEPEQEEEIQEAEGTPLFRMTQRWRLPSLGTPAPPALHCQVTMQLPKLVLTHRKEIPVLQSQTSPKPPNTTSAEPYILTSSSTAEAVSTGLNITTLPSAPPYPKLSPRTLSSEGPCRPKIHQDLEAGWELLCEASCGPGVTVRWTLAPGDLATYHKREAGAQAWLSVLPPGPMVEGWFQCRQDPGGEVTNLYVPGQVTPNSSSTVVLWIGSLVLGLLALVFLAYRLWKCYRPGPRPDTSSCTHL

T4: mouse PD-1 on cells (mouse, UniProt Q02242 25-288)
T4 sequence (looked up): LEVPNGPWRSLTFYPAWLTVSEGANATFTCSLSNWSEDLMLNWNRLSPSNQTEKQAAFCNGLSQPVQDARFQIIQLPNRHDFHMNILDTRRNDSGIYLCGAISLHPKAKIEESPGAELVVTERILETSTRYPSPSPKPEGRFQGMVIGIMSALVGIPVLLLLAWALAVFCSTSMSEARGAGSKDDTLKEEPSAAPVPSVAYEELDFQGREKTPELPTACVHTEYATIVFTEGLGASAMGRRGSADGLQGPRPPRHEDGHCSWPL


How the values were obtained:
[1] = molecular target: T1, recombinant mouse MAdCAM-1; assay: Octet
[2] = molecular target: T2, human MAdCAM expressed on cells; assay: cell binding
[3] = molecular target: T3, mouse MAdCAM expressed on cells; assay: cell binding
mouse PD-1 on cells = molecular target: T4, mouse PD-1 on cells; assay: cell-based or functional assay

| Binder | binding result [1] | binding result [2] | binding result [3] | Mouse agonist-CTG: IC50, IgG1 (mouse PD-1 on cells) [nM] |
| --- | --- | --- | --- | --- |
| MAdCAM Antibody Table 2 Clone 46 (antibody, human IgG1, V domains shown) VH: EVQLLESGGGLVQPGGSLRLSCAASGFSFSSYTMNWVRQAPGKGLEWVSFITSSSRTIYYADSVKGRFTISRDNSKNTLYLQMNSLRAEDTAVYYCARDRRGDYGDSWYFDLWGRGTLVTVSS VL: EIVMTQSPATLSVSPGERATLSCRASQSVRNYLAWYQQKPGQAPRLLIYGASTRATGIPARFSGSGSGTEFTLTISSLQSEDFAVYYCQQYGSSPLTFGGGTKVEIK | no binding | binds | no binding |  |
| PD1AB7 (antibody, IgG1, V domains shown) VH: QVQLVQSGAEVKKPGASVKVSCKASGYSFTGHYIHWVRQAPGQGLEWMGIINPNGGSTTYAQKLQGRVTMTRDTSTSTVYMELSSLRSEDTAVYYCARGKFDFYGDYVTAFDIWGQGTMVTVSS VL: not shown |  |  |  | < 10 |
| MAdCAM Antibody Table 2 Clone 29 (antibody, human IgG1, V domains shown) VH: EVQLLESGGGLVQPGGSLRLSCAASGFTFSSYQMSWVRQAPGKGLEWVSYISSSSTYTNYADSVKGRFTISRDNSKNTLYLQMNSLRAEDTAVYYCARANSSSWYDWYFDLWGQGTLVTVSS VL: not shown | no binding | binds | no binding |  |
| MAdCAM Antibody Table 2 Clone 20 (antibody, human IgG1, V domains shown) VH: EVQLLESGGGLVQPGGSLRLSCAASGFTFSDSAMHWVRQAPGKGLEWVSAISGSGSTIYYADSVKGRFTISRDNSKNTLYLQMNSLRAEDTAVYYCVSDIAVAGHWYFDLWGRGTLVTVSS VL: DIQMTQSPSSLSASVGDRVTITCRASQSISTFLNWYQQKPGKAPKLLIYAASRLEGGVPSRFSGSGSGTDFTLTISSLQPEDFATYYCQQANSFPLTFGPGTKVDIK | no binding | binds | no binding |  |
| PD1AB18 (antibody, IgG1, V domains shown) VH: QVQLVQSGAEVKKPGASVKVSCKASGYTFTDYAMHWVRQAPGQGLEWMGWLNPNSGNTGYAPKFQGRVTMTRDTSTSTVYMELSSLRSEDTAVYYCAAGLFIWGQGTMVTVSS VL: DIQMTQSPSSLSASVGDRVTITCRASQSINRWLAWYQQKPGKAPKLLIYDASSLESGVPSRFSGSGSGTDFTLTISSLQPEDFATYYCQQSYSIPITFGQGTRLEIK |  |  |  | < 10 |
| MAdCAM Antibody Table 2 Clone 65 (antibody, human IgG1, V domains shown) VH: QVQLVQSGAEVKKPGASVKVSCKASGYTFTSYDINWVRQAPGQGLEWMGWMNPNSGNTGYAQKFQGRVTMTRDTSTSTVYMELSSLRSEDTAVYYCAKDSDYSNLLWDYWGQGTLVTVSS VL: DIQMTQSPSSLSASVGDRVTITCRASQDITNDLGWYQQKPGKAPKLLIYQASSLESGVPSRFSGSGSGTDFTLTISSLQPEDFATYYCQQSYTIPLTFGQGTKVEIK | no binding | binds | no binding |  |
| MAdCAM Antibody Table 2 Clone 22 (antibody, human IgG1, V domains shown) VH: EVQLLESGGGLVQPGGSLRLSCAASGFTFDDYAMHWVRQAPGKGLEWVSGISWNSGSIGYADSVKGRFTISRDNSKNTLYLQMNSLRAEDTAVYYCAKDIVAAGHYYYGMDVWGQGTTVTVSS VL: DIQMTQSPSSLSASVGDRVTITCQASQDISNYLNWYQQKPGKAPKLLIYDASNLETGVPSRFSGSGSGTDFTLTISSLQPEDFATYYCQQSYSTPLTFGGGTKVEIK | no binding | binds | no binding |  |
| MAdCAM Antibody Table 2 Clone 23 (antibody, human IgG1, V domains shown) VH: EVQLLESGGGLVQPGGSLRLSCAASGFTFDDYAMHWVRQAPGKGLEWVSYIDTSSSHLYYADSVKGRFTISRDNSKNTLYLQMNSLRAEDTAVYYCARDEAAAGYYGMDVWGQGTTVTVSS VL: DIQMTQSPSSLSASVGDRVTITCQAGQDISNYLNWYQQKPGKAPKLLIYDASNLETGVPSRFSGSGSGTDFTLTISSLQPEDFATYYCQQTYSTPITFGQGTKLEIK | no binding | binds | no binding |  |
| PD1AB20 (antibody, IgG1, V domains shown) VH: QVQLVQSGAEVKKPGASVKVSCKASGYTFSDHYMHWVRQAPGQGLEWMGTINPSGGRTSYAQKFQGRVTMTRDTSTSTVYMELSSLRSEDTAVYYCAADNGHASGWLYYYGMDVWGQGTTVTVSS VL: DIQMTQSPSSLSASVGDRVTITCRASQSISNWVAWYQQKPGKAPKLLIYRASTLQSGVPSRFSGSGSGTDFTLTISSLQPEDFATYYCQQSHSLPLTFGPGTKVDIK |  |  |  | < 10 |
| PD1AB6 (antibody, IgG1, V domains shown) VH: EVQLLESGGGLVQPGGSLRLSCAASGFTFSNYPMHWVRQAPGKGLEWVALISDDGTNEHYADSVKGRFTISRDNSKNTLYLQMNSLRAEDTAVYYCARDSKFANYYYYYDMDVWGQGTTVTVSS VL: DIQMTQSPSSLSASVGDRVTITCRASQSINNYLSWYQQKPGKAPKLLIYDASNLETGVPSRFSGSGSGTDFTLTISSLQPEDFATYYCQQSYSTPLTFGPGTKVDIK |  |  |  | < 10 |
| MAdCAM Antibody Table 2 Clone 24 (antibody, human IgG1, V domains shown) VH: EVQLVESGGGLVKPGGSLRLSCAASGFTFSSYWMSWVRQAPGKGLEWVSRISSDGRITTYAAPVKGRFTISRDDSKNTLYLQMNSLKTEDTAVYYCARGTSYCTGGVCDIDYWGQGTLVTVSS VL: DIQMTQSPSSLSASVGDRVTITCRASQSIGRNLNWYQQKPGKAPKLLIYSASNLQSGVPSRFSGSGSGTDFTLTISSLQPEDFATYYCQQSYSIPLTFGPGTKVDIK | no binding | binds | no binding |  |
| MAdCAM Antibody Table 2 Clone 74 (antibody, human IgG1, V domains shown) VH: QVQLVQSGAEVKKPGASVKVSCKASGYTFTGYYMHWVRQAPGQGLEWMGIINPSGGNTKYAQKFQGRVTMTRDTSTSTVYMELSSLRSEDTAVYYCTTADYYYYMDVWGKGTTVTVSS VL: DIQMTQSPSSLSASVGDRVTITCRASQGISNYLAWYQQKPGKAPKLLIYAASSLQSGVPSRFSGSGSGTDFTLTISSLQPEDFATYYCQQYYSNADFGQGTKVEIK | no binding | binds | no binding |  |
| PD1AB23 (antibody, IgG1, V domains shown) VH: QVQLVQSGAEVKKPGASVKVSCKASGGTFSNYAISWVRQAPGQGLEWMGWMNPNSGNTGYAQKFQGRVTMTRDTSTSTVYMELSSLRSEDTAVYYCARVNYYYYYGMDVWGQGTTVTVSS VL: DIQMTQSPSSLSASVGDRVTITCQASQDISNYLNWYQQKPGKAPKLLIYKASTLKSGVPSRFSGSGSGTDFTLTISSLQPEDFATYYCQQADNLPFTFGPGTKVDIK |  |  |  | < 10 |
| PD1AB22 (antibody, IgG1, V domains shown) VH: QVQLVQSGAEVKKPGASVKVSCKASGYTFSGYYMHWVRQAPGQGLEWMGVINPSGGSTSYAQKFQGRVTMTRDTSTSTVYMELSSLRSEDTAVYYCAEGFDYWGQGTLVTVSS VL: EIVMTQSPATLSVSPGERATLSCRASQGVGRSLAWYQQKPGQAPRLLIYGASTRATGIPARFSGSGSGTEFTLTISSLQSEDFAVYYCQQYYTTPITFGQGTRLEIK |  |  |  | < 10 |
| PD1AB4 (antibody, IgG1, V domains shown) VH: QVQLVQSGAEVKKPGASVKVSCKASGYSFTTYYMHWVRQAPGQGLEWMGIINPSGGSTSYAQKFQGRVTMTRDTSTSTVYMELSSLRSEDTAVYYCASGWVYWGQGTLVTVSS VL: DIQMTQSPSSLSASVGDRVTITCQASRDIKNYLAWYQQKPGKAPKLLIYAASSLQSGVPSRFSGSGSGTDFTLTISSLQPEDFATYYCQQSYSTPPTFGPGTKVDIK |  |  |  | < 10 |
